Laboratory results as given in publication PMC9563463, “PARP1-MGMT complex underpins pathway crosstalk in O^6-methylguanine repair” (Journal of Hematology & Oncology, 2022).

Molecular target: T1, full-length PARP1, purified recombinant (UniProt P09874 1-1014)
T1 construct: PARP1, full length; also called purified PARP1; source: purified recombinant
Assay: MST; Monolith NT.115, 17% LED power, medium MST power, MST-on time of 10 s; full-length proteins
Details: both partners purified

T1 sequence (P09874 whole entry): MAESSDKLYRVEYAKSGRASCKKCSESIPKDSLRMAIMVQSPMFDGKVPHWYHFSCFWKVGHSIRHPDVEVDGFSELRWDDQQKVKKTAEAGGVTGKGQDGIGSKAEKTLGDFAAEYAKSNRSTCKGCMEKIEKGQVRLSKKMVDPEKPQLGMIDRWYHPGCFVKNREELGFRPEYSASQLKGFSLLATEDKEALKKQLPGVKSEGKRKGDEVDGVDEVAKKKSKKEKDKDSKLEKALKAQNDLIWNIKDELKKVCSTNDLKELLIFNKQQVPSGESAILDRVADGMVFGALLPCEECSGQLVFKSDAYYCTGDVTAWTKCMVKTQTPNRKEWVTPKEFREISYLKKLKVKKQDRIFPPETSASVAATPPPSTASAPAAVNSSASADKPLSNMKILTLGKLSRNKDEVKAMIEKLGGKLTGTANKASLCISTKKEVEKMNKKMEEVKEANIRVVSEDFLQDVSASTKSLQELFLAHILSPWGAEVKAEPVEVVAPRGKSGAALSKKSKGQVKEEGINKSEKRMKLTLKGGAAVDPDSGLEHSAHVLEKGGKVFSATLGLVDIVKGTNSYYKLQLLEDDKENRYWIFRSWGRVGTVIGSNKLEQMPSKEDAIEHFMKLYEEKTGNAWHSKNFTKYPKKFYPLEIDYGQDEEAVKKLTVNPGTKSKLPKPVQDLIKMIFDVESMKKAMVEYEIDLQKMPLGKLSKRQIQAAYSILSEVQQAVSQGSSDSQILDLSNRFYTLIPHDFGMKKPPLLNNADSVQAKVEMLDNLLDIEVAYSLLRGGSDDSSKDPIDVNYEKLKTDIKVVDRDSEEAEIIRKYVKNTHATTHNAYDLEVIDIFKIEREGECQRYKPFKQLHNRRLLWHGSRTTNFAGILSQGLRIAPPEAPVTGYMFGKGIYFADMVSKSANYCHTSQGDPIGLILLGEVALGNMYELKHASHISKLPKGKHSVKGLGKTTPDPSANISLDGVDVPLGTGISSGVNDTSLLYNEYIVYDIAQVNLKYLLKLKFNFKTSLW

B1: full-length MGMT, purified recombinant (natural protein, UniProt P16455 1-207, looked up)
chain: MDKDCEMKRTTLDSPLGKLELSGCEQGLHEIKLLGKGTSAADAVEVPAPAAVLGGPEPLMQCTAWLNAYFHQPEAIEEFPVPALHHPVFQQESFTRQVLWKLLKVVKFGEVISYQQLAALAGNPKAARAVGGAMRGNPVPILIPCHRVVCSSGAVGNYSGGLAVKEWLLAHEGHRLGKPGLGGSSGLAGAWLKGAGATSGSPPAGRN
notes: MGMT, full length; also called purified MGMT; source: purified recombinant
Kd: 165 nM
